Source: US7442684 (TRUSTEES OF COLUMBIA UNIVERSITY IN THE CITY OF NEW YORK, dated 2008)

Biological target: T1, human FSH receptor (human, UniProt P23945 18-695)
T1 construct: whole, on cells; Expressed in Y-1 (Y1) cells. cAMP is the read-out; also called hFSH receptor; recombinant native hFSH receptor
T1 sequence (looked up): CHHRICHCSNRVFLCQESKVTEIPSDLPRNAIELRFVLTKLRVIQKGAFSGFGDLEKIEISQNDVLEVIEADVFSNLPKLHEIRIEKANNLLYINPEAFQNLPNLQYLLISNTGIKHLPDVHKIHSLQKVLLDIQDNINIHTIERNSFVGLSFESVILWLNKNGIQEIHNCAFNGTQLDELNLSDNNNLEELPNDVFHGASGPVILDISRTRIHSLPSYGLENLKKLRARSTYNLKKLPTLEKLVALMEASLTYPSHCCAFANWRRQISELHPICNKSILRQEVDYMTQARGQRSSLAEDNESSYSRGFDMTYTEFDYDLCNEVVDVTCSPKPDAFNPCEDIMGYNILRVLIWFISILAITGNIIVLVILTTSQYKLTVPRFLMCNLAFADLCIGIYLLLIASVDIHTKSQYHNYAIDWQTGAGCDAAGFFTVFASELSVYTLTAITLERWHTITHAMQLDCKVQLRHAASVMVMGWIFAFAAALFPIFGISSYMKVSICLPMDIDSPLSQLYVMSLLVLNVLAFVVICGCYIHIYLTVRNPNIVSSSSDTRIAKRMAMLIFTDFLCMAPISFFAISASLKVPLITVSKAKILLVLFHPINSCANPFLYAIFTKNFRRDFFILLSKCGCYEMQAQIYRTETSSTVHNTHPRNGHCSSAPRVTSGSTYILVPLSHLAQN
Test: conclusion drawn from the cAMP assay on cells expressing the hFSH receptor; no direct binding assay
Procedure: Bioactivity of the hFSH analogues was evaluated using Y-1 cells transfected with the FSH receptor. Y-1 cell cultures were mixed with the fusion protein and native pituitary hFSH (control) at varying concentrations and media was assayed for cAMP activity as described in Bouloux et al, 2001.
Figure 8: FIG. 8: In vitro bioassay of hormone activity. cAMP concentration (fmol/ml) was quantitated in Y1 cells expressing the FSH receptor after treatment with the indicated amount of either pituitary FSH (pFSH) or the FSH analogue, β-hFSH-CTP-α-hFSH (rFSH-CTP).
The bioactivity of the β-hFSH-CTP-α analogue was first assessed by an assay of hFSH receptor activity. In this assay, a recombinant native hFSH receptor is expressed in a suitable host cell and cAMP induction is measured following incubation with hormone (Lindau-Shepard et al, 2001).

- binding result: binds
B1: β-hFSH-CTP-α-hFSH fusion protein (ligand)
chain: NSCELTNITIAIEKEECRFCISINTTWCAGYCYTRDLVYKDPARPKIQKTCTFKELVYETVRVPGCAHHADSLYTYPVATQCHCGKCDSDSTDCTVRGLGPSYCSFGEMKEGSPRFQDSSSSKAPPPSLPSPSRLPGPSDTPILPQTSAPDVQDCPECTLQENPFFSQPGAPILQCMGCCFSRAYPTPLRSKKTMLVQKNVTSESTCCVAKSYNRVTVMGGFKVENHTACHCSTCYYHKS
modifications: O-linked glycosylation on serines of the CTP linker; N-linked glycosylation on the FSH subunits (sites not numbered on this entry)
notes: Secreted from CHO cells; also called β-hFSH-CTP-α analogue; rFSH-CTP
